Assay results reported in patent US20260226194A1 (GlaxoSmithKline, published 2026).
Substitutions are numbered along the chain they refer to. Names may count otherwise. Values belong to the binder of their own block, whether it stands above or below them.

What was measured:
[1] = molecular target: T1, recombinant human PAPPA (pregnancy associated plasma protein-A) (human, UniProt Q13219 82-1627); assay: cell-based or functional assay
[2] = molecular target: T1, recombinant human PAPPA (pregnancy …); assay: cell-based or functional assay; remark: listed apart in the source
[3] = molecular target: T2, endogenous human PAPPA natively secreted by human cells (A549; 9-7) (human, UniProt Q13219 82-1627); assay: cell-based or functional assay
[4] = molecular target: T3, recombinant cynomolgus monkey PAPPA (cynomolgus monkey, UniProt A0A2K5WE98 87-1619); assay: cell-based or functional assay
recombinant mouse PAPPA [5] = molecular target: T4, recombinant mouse PAPPA (mouse, UniProt Q8R4K8 82-1624, limits assumed); assay: cell-based or functional assay
[6] = molecular target: T1, recombinant human PAPPA (pregnancy …); assay: cell-based or functional assay; remark: listed apart in the source
rat PAPPA = rat PAPPA (rat, UniProt A0ABK0LMY4 80-1624); assay: SPR (Biacore 8K+, captured mAb, 37 C); data not shown
recombinant mouse PAPPA [7] = molecular target: T4, recombinant mouse PAPPA; assay: as above
[8] = molecular target: T1, recombinant human PAPPA (pregnancy …); assay: cell-based or functional assay; remark: listed apart in the source
[9] = molecular target: T2, endogenous human PAPPA natively …; assay: cell-based or functional assay; remark: listed apart in the source
[10] = molecular target: T1, recombinant human PAPPA (pregnancy …); assay: SPR, Biacore 8K+, mAb captured on PrismA chip, PAPPA as analyte, 37 C, mean of n=3
Procedure: (§1) Binding of TPP12744 to recombinant human, cynomolgus monkey and rabbit PAPPA was assessed using capture kinetics method on BIACORE 8K+ (Cytiva) SPR instrument. The antibodies, including controls, were captured on PrismA biosensor surface (Cytiva) at injection rate of 10 μl/min. Analytes were injected at injection rate of 30 μl/min over the captured antibodies as a concentration series including eight 2× serial dilutions with the highest concentration of 32 nM. Association phase was 160 seconds, followed by a dissociation phase of 600 seconds. Buffer only (OnM analyte) injection was used to double reference the binding curves. Regeneration of the chip surface between cycles was carried out using 10 mM Glycine pH 1.5. The assay was run at 37° C. in HBS-EP+ buffer with 0.1% BSA to minimize the nonspecific binding of the analytes to the chip surface. TPP12744 was analyzed as three independently prepared replicates.
(§2) The final screening process was conducted using the following criteria. Firstly, antibodies were checked for affinity to human PAPPA (method #4). Only antibodies with low nanomolar affinity for human PAPPA were retained. For one antibody (TPP12744) binding to PAPPA was assessed at 37° C. using the methodology described in Example 1, method #6.

[11] = molecular target: human PAPPA (Common variant) (human); assay: as above
Procedure: as §1, §2

[12] = molecular target: T3, recombinant cynomolgus monkey PAPPA; assay: as above
Procedure: as §1, §2

[13] = molecular target: T2, endogenous human PAPPA natively …; assay: cell-based or functional assay; remark: listed apart in the source

T4 sequence (Q8R4K8 82-1624 limits assumed): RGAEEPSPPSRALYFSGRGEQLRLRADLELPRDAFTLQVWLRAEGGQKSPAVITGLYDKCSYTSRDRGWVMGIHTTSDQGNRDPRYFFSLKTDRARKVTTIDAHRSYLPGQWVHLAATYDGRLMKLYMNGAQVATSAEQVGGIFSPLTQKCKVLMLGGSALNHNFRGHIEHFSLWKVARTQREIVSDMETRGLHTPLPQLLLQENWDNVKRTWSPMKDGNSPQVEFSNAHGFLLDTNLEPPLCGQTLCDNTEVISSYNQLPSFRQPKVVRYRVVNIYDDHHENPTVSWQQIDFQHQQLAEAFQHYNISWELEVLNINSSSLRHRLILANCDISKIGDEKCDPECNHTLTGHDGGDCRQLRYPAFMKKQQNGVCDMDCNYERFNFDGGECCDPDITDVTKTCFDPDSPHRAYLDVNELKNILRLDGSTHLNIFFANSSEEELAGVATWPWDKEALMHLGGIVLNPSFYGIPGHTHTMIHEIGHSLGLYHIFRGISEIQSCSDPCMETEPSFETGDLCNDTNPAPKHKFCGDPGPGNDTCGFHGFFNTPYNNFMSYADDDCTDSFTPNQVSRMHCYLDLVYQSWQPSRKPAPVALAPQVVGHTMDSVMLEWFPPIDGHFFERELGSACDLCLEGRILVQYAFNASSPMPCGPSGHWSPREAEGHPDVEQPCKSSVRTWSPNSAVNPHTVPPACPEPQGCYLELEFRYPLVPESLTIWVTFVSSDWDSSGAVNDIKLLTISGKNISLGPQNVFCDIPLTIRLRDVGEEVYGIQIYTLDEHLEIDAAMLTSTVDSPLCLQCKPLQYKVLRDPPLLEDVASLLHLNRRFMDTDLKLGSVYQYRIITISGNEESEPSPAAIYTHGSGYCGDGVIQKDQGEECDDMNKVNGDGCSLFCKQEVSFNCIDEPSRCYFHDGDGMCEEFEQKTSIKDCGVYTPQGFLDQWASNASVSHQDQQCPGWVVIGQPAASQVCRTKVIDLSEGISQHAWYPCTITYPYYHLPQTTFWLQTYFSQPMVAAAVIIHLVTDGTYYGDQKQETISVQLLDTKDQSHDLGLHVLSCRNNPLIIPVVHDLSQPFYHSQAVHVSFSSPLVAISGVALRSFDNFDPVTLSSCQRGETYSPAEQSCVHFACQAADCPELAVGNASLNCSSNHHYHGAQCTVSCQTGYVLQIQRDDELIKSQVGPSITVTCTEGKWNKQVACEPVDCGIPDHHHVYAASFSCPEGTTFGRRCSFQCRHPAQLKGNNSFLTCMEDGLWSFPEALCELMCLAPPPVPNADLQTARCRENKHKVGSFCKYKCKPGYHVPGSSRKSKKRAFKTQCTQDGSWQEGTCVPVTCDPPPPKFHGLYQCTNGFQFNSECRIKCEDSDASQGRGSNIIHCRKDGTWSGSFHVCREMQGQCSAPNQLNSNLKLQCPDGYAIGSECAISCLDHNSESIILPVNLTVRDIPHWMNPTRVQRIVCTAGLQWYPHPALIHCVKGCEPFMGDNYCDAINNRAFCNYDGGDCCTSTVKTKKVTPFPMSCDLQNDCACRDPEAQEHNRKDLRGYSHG
T3 sequence (A0A2K5WE98 entry or part of it): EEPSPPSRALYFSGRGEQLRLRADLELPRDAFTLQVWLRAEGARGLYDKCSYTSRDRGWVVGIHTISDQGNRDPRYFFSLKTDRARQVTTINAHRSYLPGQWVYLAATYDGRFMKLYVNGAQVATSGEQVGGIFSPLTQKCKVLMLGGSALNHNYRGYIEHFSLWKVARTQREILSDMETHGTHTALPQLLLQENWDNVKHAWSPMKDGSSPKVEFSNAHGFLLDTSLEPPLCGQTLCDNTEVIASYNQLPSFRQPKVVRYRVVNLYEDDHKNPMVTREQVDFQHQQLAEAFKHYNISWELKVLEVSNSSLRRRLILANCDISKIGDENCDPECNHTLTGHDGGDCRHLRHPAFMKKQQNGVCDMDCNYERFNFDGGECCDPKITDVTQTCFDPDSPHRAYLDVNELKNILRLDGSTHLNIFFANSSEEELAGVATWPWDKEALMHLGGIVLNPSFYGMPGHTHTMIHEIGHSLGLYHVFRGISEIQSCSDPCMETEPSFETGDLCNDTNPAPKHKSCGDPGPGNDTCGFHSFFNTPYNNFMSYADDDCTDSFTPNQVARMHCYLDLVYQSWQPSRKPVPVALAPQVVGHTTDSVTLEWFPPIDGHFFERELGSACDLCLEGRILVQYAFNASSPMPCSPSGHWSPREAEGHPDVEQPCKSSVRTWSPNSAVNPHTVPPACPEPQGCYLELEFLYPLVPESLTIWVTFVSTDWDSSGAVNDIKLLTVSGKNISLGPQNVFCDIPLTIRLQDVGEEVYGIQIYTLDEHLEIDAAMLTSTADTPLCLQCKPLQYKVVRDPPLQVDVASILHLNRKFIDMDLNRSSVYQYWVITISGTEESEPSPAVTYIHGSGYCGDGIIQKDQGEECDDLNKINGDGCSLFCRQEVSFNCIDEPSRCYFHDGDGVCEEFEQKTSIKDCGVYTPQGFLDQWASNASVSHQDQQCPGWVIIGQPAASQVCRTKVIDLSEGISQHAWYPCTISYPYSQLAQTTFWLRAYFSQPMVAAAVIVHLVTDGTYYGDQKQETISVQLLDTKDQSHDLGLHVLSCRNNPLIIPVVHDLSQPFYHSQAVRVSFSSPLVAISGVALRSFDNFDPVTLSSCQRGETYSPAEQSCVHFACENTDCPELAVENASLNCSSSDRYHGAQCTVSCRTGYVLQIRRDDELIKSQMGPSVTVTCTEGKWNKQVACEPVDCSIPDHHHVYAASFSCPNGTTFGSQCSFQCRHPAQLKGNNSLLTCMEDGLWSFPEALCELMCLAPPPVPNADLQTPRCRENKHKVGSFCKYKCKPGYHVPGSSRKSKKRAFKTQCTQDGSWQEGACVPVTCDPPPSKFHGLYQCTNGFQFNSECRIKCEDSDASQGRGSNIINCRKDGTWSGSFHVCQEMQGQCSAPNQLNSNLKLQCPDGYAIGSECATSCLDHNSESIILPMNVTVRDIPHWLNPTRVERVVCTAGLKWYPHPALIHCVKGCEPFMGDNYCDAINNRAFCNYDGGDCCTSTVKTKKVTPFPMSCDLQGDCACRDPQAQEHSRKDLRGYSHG
T1 sequence (Q13219 82-1627 limits assumed): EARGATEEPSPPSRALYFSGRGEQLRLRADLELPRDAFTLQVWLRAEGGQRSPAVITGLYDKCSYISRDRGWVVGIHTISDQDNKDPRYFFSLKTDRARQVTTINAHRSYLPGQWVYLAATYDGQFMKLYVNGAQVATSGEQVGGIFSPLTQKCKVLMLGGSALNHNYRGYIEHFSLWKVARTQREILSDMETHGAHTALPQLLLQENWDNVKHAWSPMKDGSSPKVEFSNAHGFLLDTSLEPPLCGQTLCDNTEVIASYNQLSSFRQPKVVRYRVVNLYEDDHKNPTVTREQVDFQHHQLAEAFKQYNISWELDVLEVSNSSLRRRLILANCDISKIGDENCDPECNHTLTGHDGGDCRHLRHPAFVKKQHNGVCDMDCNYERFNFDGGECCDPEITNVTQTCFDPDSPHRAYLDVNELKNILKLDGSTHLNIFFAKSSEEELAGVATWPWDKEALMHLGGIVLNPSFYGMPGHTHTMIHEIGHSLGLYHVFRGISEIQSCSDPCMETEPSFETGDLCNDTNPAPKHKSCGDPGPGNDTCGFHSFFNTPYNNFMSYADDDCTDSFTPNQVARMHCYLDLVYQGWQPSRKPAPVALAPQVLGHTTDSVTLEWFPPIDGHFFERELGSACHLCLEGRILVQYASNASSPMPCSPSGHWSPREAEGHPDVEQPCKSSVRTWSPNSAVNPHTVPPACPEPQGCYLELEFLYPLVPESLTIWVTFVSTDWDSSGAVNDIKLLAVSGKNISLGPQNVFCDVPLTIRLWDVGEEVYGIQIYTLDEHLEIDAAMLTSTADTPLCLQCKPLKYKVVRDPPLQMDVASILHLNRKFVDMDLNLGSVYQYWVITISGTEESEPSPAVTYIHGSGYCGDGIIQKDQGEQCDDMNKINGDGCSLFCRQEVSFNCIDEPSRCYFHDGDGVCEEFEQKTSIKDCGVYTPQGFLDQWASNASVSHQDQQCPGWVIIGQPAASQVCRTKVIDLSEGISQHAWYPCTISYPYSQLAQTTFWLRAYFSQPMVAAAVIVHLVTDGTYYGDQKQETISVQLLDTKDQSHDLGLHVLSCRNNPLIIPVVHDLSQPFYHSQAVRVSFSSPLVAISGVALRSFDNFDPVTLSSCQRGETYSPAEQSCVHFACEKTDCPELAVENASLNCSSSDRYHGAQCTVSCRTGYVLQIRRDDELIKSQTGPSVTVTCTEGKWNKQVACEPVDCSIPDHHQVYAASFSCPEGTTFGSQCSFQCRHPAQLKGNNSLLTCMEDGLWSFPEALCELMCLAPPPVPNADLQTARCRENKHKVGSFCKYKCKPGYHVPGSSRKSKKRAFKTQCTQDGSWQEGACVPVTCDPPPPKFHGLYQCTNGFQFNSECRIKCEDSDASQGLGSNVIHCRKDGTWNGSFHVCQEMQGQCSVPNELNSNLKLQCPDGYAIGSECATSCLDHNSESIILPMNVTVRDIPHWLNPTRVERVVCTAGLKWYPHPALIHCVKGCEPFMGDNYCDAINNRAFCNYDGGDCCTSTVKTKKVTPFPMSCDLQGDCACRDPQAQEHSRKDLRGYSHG
T2 sequence (Q13219 82-1627 limits assumed): as above

- PAPP-A cleavage of IGFBP-4 Mean pIC50 [1]: 9.53 pIC50
- rec. Human PAPP-A IGFBP4 pIC50 (G-401 pAKT assay) [2]: 9.18 pIC50
- rec. Human PAPP-A IGFBP5 pIC50 (G-401 pAKT assay) [2]: 9.35 pIC50
- A549 cells endogenous human PAPP-A pIC50 (A549 pAKT assay) [3]: 8.92 pIC50
- rec. Cyno PAPP-A IGFBP4 pIC50 (G-401 pAKT assay) [4]: 9.23 pIC50
- PAPP-A cleavage of IGFBP-5 Mean pIC50 [6]: 9.78 pIC50
B3: TPP-12792 (antibody, human IgG1, kappa, V domains shown)
VH: QLQLQESGPGLVKPSETLSLTCTVSGGSISSSDYYWGWIRQPPGKGLEWIGSIFYSGSTYYNPSLKSRVTISVDTSKNQFSLKLSSVTAADTAVYYCARATTSSSADYWGQGTLVTVSS
VL: DIQMTQSPSSVSASVGDRVTITCRASQGISRWLAWYQQKPGKAPKLLIYAASSVQSGVPSRFSGSGSGTDFTLTISSLQPEDFATYYCQQGNVPPLTFGGGTKVEIKR

- binding result (rat PAPPA): no binding
- binding result (recombinant mouse PAPPA [7]): no binding
- PAPP-A cleavage of IGFBP-4 Mean pIC50 [1]: 10 pIC50
- IC50, PAPPA-mediated cleavage of human IGFBP2, cell-free, Western blot [8]: 1.39 nM
- EC50, increase of intact IGFBP4 in A549 cell supernatant (ELISA) [9]: 0.8 nM
- EC50, increase of intact IGFBP4 in ADPKD patient derived cystic 9-7 cells (ELISA) [9]: 0.4 nM
- IC50, decrease of IGFBP4-Ct fragments in 9-7 cells (ELISA) [9]: 0.02 nM
- IC50, decrease of IGFBP4-Ct fragments in A549 cell supernatant (ELISA) [9]: 0.8 nM
- IC50, decrease of free-IGF-1 in A549 cell supernatant (ELISA) [9]: 0.03 nM
- pEC50, increase of intact IGFBP4 in 9-7 cells (ELISA) [9]: 9.41 pEC50
- pEC50, increase of intact IGFBP4 in A549 cell supernatant (ELISA) [9]: 9.09 pEC50
- pIC50, decrease of IGFBP4-Ct fragments in 9-7 cells (ELISA) [9]: 10.6 pIC50
- pIC50, decrease of IGFBP4-Ct fragments in A549 cell supernatant (ELISA) [9]: 9.07 pIC50
- pIC50, decrease of free-IGF-1 in A549 cell supernatant (ELISA) [9]: 10.5 pIC50
- Kd [10]: 0.127 nM
- koff [10]: 0.000319 s⁻¹
- kon [10]: 2.51e+06 M⁻¹ s⁻¹
- Kd [11]: 0.21 nM
- koff [11]: 0.000393 s⁻¹
- kon [11]: 1.87e+06 M⁻¹ s⁻¹
- Kd [12]: 0.161 nM
- koff [12]: 0.000433 s⁻¹
- kon [12]: 2.68e+06 M⁻¹ s⁻¹
- rec. Human PAPP-A IGFBP4 pIC50 (G-401 pAKT assay) [2]: 9.46 pIC50
- rec. Human PAPP-A IGFBP5 pIC50 (G-401 pAKT assay) [2]: 9.81 pIC50
- A549 cells endogenous human PAPP-A pIC50 (A549 pAKT assay) [3]: 9.49 pIC50
- rec. Cyno PAPP-A IGFBP4 pIC50 (G-401 pAKT assay) [4]: 9.56 pIC50
- EC50 (read off the curve) [13]: ~1 nM
- PAPP-A cleavage of IGFBP-5 Mean pIC50 [6]: 10.7 pIC50
B5: TPP-12744 (antibody, human IgG1, kappa, V domains shown)
VH: QVQLVQSGAEVKKPGASVKVSCKASGYTFTSYAMHWVRQAPGQRLEWMGWMNAGTGATKSSQKFQGRVTITRDTSASTAYMELSSLRSEDTAVYYCARGPSMETPTTFGMDVWGQGTTVTVSS
VL: B3 VL with V54L, G91E, V93A, P94Y, L96F
notes: human IgG1/kappa, Fc-disabled (L235A, G237A)

- PAPP-A cleavage of IGFBP-4 Mean pIC50 [1]: 8.96 pIC50
- rec. Human PAPP-A IGFBP4 pIC50 (G-401 pAKT assay) [2]: 9.22 pIC50
- rec. Human PAPP-A IGFBP5 pIC50 (G-401 pAKT assay) [2]: 9.05 pIC50
- A549 cells endogenous human PAPP-A pIC50 (A549 pAKT assay) [3]: 9.33 pIC50
- rec. Cyno PAPP-A IGFBP4 pIC50 (G-401 pAKT assay) [4]: 9.76 pIC50
- PAPP-A cleavage of IGFBP-5 Mean pIC50 [6]: 9.1 pIC50
B6: TPP-12801 (antibody, human IgG1, kappa, V domains shown)
VH: B3 VH
VL: B3 VL with I29V, V54L

- PAPP-A cleavage of IGFBP-4 Mean pIC50 [1]: 10.5 pIC50
- rec. Human PAPP-A IGFBP4 pIC50 (G-401 pAKT assay) [2]: 9.45 pIC50
- rec. Human PAPP-A IGFBP5 pIC50 (G-401 pAKT assay) [2]: 9.04 pIC50
- A549 cells endogenous human PAPP-A pIC50 (A549 pAKT assay) [3]: 9.5 pIC50
- rec. Cyno PAPP-A IGFBP4 pIC50 (G-401 pAKT assay) [4]: 9.85 pIC50
- rec. Mouse PAPP-A IGFBP4 pIC50 (G-401 pAKT assay) (recombinant mouse PAPPA [5]): 9.28 pIC50
- PAPP-A cleavage of IGFBP-5 Mean pIC50 [6]: 9.1 pIC50
B8: TPP-12821 (antibody, human IgG1, kappa, V domains shown)
VH: EVQLVQSGAEVKKPGESLKISCKGSGYSFTSDWIGWVRQAPGKGLEWMGIIYPGGSDTRYSPSFRGQVTISADKSISTAYLQWSSLKASDTAVYYCARGPLRSDYVDVWGQGTMVTVSS
VL: EIVMTQSPATLSVSPGERATLSCRASQSVGSNLAWYQQKPGQAPRLLIYRASTRATGIPARFSGSGSGTEFTLTISSLQSEDFAVYYCQQPYVWPITFGGGTKVEIKR

Continued, binder first:

B1: TPP-12683 (antibody, human IgG1, kappa, V domains shown)
VH: QLQLQESGPGLVKPSETLSLTCTVSGGSISSSSYNWGWIRQPPGKGLEWIGSISSSGSTYFNPSLKSRVTISVDTSKNQFSLKLSSVTAADTAVYYCARSGYRPSFYAMDAWGQGTTVTVSS
VL: DIQLTQSPSSVSASVGDRVTITCRASQDISYWLAWYQQKPGKAPKLLIYAASSLQSGVPSRFSGSGSGTDFTLTISSLQPEDFATYYCQQAYLLHTFGGGTKVEIKR
- PAPP-A cleavage of IGFBP-4 Mean pIC50 [1]: 8.8 pIC50
- rec. Human PAPP-A IGFBP4 pIC50 (G-401 pAKT assay) [2]: 8.84 pIC50
- rec. Human PAPP-A IGFBP5 pIC50 (G-401 pAKT assay) [2]: 8.81 pIC50
- A549 cells endogenous human PAPP-A pIC50 (A549 pAKT assay) [3]: 8.44 pIC50
- rec. Cyno PAPP-A IGFBP4 pIC50 (G-401 pAKT assay) [4]: 8.48 pIC50
- rec. Mouse PAPP-A IGFBP4 pIC50 (G-401 pAKT assay) (recombinant mouse PAPPA [5]): 8.88 pIC50
- PAPP-A cleavage of IGFBP-5 Mean pIC50 [6]: 8.69 pIC50

B2: TPP-12743 (antibody, human IgG1, kappa, V domains shown)
VH: B5 VH with M102L
VL: B3 VL with V54L, G91E, V93A, P94Y, L96F
- PAPP-A cleavage of IGFBP-4 Mean pIC50 [1]: 10 pIC50
- rec. Human PAPP-A IGFBP4 pIC50 (G-401 pAKT assay) [2]: 9.36 pIC50
- rec. Human PAPP-A IGFBP5 pIC50 (G-401 pAKT assay) [2]: 9.66 pIC50
- A549 cells endogenous human PAPP-A pIC50 (A549 pAKT assay) [3]: 9.76 pIC50
- rec. Cyno PAPP-A IGFBP4 pIC50 (G-401 pAKT assay) [4]: 10 pIC50
- PAPP-A cleavage of IGFBP-5 Mean pIC50 [6]: 10.4 pIC50

B4: TPP-12708 (antibody, human IgG1, kappa, V domains shown)
VH: B5 VH with M51I, S60Y, S61A, Q62R, F108Y, D111E
VL: B3 VL with A50S, A51T, V54L, S56L, G91E, V93D, P94Y, L96F
- PAPP-A cleavage of IGFBP-4 Mean pIC50 [1]: 10.2 pIC50
- rec. Human PAPP-A IGFBP4 pIC50 (G-401 pAKT assay) [2]: 9.59 pIC50
- rec. Human PAPP-A IGFBP5 pIC50 (G-401 pAKT assay) [2]: 9.92 pIC50
- A549 cells endogenous human PAPP-A pIC50 (A549 pAKT assay) [3]: 9.86 pIC50
- rec. Cyno PAPP-A IGFBP4 pIC50 (G-401 pAKT assay) [4]: 9.7 pIC50
- PAPP-A cleavage of IGFBP-5 Mean pIC50 [6]: 11.1 pIC50

B7: TPP-12681 (antibody, human IgG1, kappa, V domains shown)
VH: B8 VH with D32Y, I34T, D57V, T58A, R65Q, V106P
VL: B8 VL with N32Y, A51G
- PAPP-A cleavage of IGFBP-4 Mean pIC50 [1]: 10.1 pIC50
- rec. Human PAPP-A IGFBP4 pIC50 (G-401 pAKT assay) [2]: 9.57 pIC50
- rec. Human PAPP-A IGFBP5 pIC50 (G-401 pAKT assay) [2]: 9.68 pIC50
- A549 cells endogenous human PAPP-A pIC50 (A549 pAKT assay) [3]: 9.7 pIC50
- rec. Cyno PAPP-A IGFBP4 pIC50 (G-401 pAKT assay) [4]: 9.46 pIC50
- rec. Mouse PAPP-A IGFBP4 pIC50 (G-401 pAKT assay) (recombinant mouse PAPPA [5]): 9.51 pIC50
- EC50 (read off the curve) [13]: ~0.1 nM
